Source: patent publication US20080124280A1

How the values were obtained:
purified αVβ3 integrin [1] = biological target: purified αVβ3 integrin (UniProt P06756); assay: antibody at 8 µg/ml added to purified αVβ3 30 min before [125I]-T4; native gel; the legend's value differs from the 59% of paragraph 377
purified αVβ3 integrin [2] = biological target: purified αVβ3 integrin (UniProt P06756); assay: antibody at 1 µg/ml added to 2 µg purified αVβ3 before [125I]-T4; native gel, band intensity
purified αVβ3 integrin [3] = biological target: purified αVβ3 integrin (UniProt P06756); assay: antibody at 4 µg/ml added to 2 µg purified αVβ3 before [125I]-T4; native gel, band intensity
purified αVβ3 integrin [4] = biological target: purified αVβ3 integrin (UniProt P06756); assay: antibody at 8 µg/ml added to 2 µg purified αVβ3 before [125I]-T4; native gel, band intensity
purified αVβ3 integrin [5] = biological target: purified αVβ3 integrin (UniProt P06756); assay: antibody at 2 µg/ml added to 2 µg purified αVβ3 before [125I]-T4; native gel, band intensity

purified αVβ3 integrin, sequence (P06756 31-1048 limits assumed, form in doubt, chain 1 of 2): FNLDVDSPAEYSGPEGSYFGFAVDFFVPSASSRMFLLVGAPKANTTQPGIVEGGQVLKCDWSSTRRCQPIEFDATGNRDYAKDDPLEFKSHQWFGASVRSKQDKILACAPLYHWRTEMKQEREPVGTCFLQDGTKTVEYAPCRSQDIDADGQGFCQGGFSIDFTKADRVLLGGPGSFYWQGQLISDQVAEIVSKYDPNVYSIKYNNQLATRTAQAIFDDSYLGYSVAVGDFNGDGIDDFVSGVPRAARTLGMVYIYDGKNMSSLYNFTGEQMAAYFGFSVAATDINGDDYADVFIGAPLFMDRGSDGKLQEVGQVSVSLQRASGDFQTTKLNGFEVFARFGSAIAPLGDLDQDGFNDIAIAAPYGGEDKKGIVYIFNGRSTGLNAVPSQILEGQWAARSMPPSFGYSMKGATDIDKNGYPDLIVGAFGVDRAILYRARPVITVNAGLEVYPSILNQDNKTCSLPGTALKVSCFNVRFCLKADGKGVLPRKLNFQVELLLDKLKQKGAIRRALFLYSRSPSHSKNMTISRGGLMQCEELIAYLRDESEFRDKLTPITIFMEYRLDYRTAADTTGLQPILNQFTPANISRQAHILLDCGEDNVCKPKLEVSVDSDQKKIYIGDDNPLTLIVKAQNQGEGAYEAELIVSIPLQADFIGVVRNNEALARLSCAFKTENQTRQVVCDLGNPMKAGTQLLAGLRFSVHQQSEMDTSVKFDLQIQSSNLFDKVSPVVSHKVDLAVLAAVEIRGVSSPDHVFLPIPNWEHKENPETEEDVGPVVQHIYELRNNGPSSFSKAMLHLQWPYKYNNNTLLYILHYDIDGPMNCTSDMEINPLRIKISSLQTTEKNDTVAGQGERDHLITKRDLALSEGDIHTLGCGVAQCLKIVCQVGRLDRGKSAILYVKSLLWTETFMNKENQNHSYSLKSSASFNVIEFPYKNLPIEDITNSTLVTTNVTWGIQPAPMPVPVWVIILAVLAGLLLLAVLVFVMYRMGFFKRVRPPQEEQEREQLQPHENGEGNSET
purified αVβ3 integrin, sequence (P05106 27-788 limits assumed, form in doubt, chain 2 of 2, further chain): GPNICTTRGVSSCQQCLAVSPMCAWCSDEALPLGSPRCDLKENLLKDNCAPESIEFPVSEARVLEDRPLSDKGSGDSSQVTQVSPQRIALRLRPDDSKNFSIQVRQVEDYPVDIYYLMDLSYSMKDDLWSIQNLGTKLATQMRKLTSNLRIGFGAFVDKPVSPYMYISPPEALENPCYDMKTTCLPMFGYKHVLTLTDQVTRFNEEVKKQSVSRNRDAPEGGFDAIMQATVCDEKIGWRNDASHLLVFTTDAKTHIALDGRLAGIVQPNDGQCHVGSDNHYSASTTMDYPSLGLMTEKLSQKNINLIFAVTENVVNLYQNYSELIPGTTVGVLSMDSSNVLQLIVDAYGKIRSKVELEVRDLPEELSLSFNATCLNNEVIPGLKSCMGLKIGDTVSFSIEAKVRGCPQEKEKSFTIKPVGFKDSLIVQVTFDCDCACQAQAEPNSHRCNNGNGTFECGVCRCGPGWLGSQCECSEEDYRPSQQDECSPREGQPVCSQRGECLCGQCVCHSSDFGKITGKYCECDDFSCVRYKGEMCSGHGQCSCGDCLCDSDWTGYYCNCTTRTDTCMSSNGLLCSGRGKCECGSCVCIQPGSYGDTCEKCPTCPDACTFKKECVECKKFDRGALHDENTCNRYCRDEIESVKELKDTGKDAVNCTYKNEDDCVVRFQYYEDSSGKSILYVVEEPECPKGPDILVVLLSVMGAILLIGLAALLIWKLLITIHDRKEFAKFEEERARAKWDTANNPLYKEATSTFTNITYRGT

monoclonal antibody SC7312 to αVβ3
percent reduction of T4 binding to αVβ3 (purified αVβ3 integrin [1]): 58% | percent reduction of T4 binding to αVβ3 (purified αVβ3 integrin [2]): 20% | percent reduction of T4 binding to αVβ3 (purified αVβ3 integrin [3]): 47% | percent reduction of T4 binding to αVβ3 (purified αVβ3 integrin [4]): 59% | percent reduction of T4 binding to αVβ3 (purified αVβ3 integrin [5]): 46%

monoclonal antibody LM609 to αVβ3
percent reduction of integrin-[125I]T4 complex formation (purified αVβ3 integrin [2]): 52% | percent decrease of band intensity (integrin-[125I]T4 complex) (purified αVβ3 integrin [3]): 63% | percent decrease of band intensity (integrin-[125I]T4 complex) (purified αVβ3 integrin [4]): 81% | percent decrease of band intensity (integrin-[125I]T4 complex) (purified αVβ3 integrin [5]): 64%
